Test results reported in the supplement of paper PMC10567573.
± gives the standard deviation.

Experiment: protein stability index of a GFP-peptide fusion (GPS, HEK-293T) (PSI 1-6); higher = more stable
[1] = treatment: DMSO, c terminus: a fixed tail appended
[2] = treatment: MLN4924 1 uM, 8 h, c terminus: a fixed tail appended
[3] = treatment: DMSO, c terminus: native
[4] = treatment: MLN4924 1 uM, 8 h, c terminus: native
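Further: 24-mer peptide tiles fused after GFP, lentivirally expressed, FACS-sorted into six equal bins by GFP/DsRed ratio, decoded by Illumina sequencing, PSI is the read-weighted mean bin number.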

Row | Sequence | protein stability index [1] | protein stability index [2] | protein stability index [3] | protein stability index [4]
1 | AAAAAAASAAAATAAFTTAKAAAL [SPAG8] | 2.33 ± 0.26 | 2.62 ± 0.75 | – | –
2 | AAAQSYPGYLPYSPEPPSLYGALN [IRX6] | 2.68 ± 0.077 | 2.87 ± 0.2 | – | –
3 | AAETASLEEQLQGWGEVMLMADKV [ARL6IP1] | 4.53 ± 0.082 | 4.45 ± 0.19 | – | –
4 | AAFQTILTEIYRIVSQKQMSDRRE [RAB11A] | 2.77 ± 0.42 | 2.52 ± 0.36 | – | –
5 | AALELLPRELFPPLFMAAFDGRHS [PRAME] | 2.27 ± 0.38 | 2.4 ± 0.18 | – | –
6 | AALHMVIVAAFTWAFTLFFEVSE [KMT2E] | – | – | 2.48 ± 0.21 | 2.34 ± 0.16
7 | AAPLPERNSLSAIFNNVMTLCAML [SLC29A1] | 2.57 ± 0.14 | 2.57 ± 0.31 | – | –
8 | AATPRTNSVISVCSSSNLAGNDDS [DLC1] | 5.08 ± 0.3 | 5.17 ± 0.083 | – | –
9 | AAVKENQMTPTNLAVCLAPSLFHL [DLC1] | 2.37 ± 0.06 | 2.61 ± 0.33 | – | –
10 | ADISEAEQRTIQAQKESLQNQHHS [APBB1IP] | 5.2 ± 0.38 | 5.23 ± 0.15 | – | –
11 | AEALYQTKFQELQLAAGRHGDDLK [KRT71] | 4.61 ± 0.28 | 4.71 ± 0.13 | – | –
12 | AEEYRLKEHYLTFEKSRYETYIHL [PSD2] | 1.93 ± 0.2 | 2.01 ± 0.46 | – | –
13 | AEKVNQDMCMKVPDDPEHLAARRQ [CRYL1] | 5.27 ± 0.61 | 5.15 ± 0.26 | – | –
14 | AFEPEALGNLVEGMDFHRFYFENA [CAMK2D] | 2.86 ± 0.44 | 2.78 ± 0.54 | – | –
15 | AFHPLFSLTSGACRLDYRRPENRS [TCF25] | 2.29 ± 0.41 | 2.24 ± 0.24 | – | –
16 | AFLEPDETFIVPDSFLVALDMDDG [SPSB1] | 3.46 ± 0.25 | 3.65 ± 0.48 | – | –
17 | AGGNSSSSAAMQSSCSSTSGGGGG [CCDC6] | 5.08 ± 0.11 | 5.035 ± 0.022 | – | –
18 | AGHCSASPGPAAPTARMPGRLRG | – | – | 3 ± 0.6 | 2.93 ± 0.73
19 | AGSFSRRLIKRFSFKSKPKANGNP [C2CD2L] | 3.19 ± 0.21 | 3.55 ± 0.15 | – | –
20 | AIFWIVFLLLIVFYTAITKKIFKS [P2RY14] | 2.42 ± 0.6 | 2.27 ± 0.2 | – | –
21 | AKELTAEKRLEGQEEEEDNRDSSM [CHGA] | 5.67 ± 0.22 | 5.61 ± 0.31 | – | –
22 | AKHRLVPPAQGRVSRRLSPRKVST [TRIM9] | 4.37 ± 0.23 | 4.65 ± 0.12 | – | –
23 | AKLHDVELHQVAERVEALGQFVMK [GNB5] | 3.78 ± 0.2 | 3.74 ± 0.14 | – | –

Row | Sequence | protein stability index [1] | protein stability index [2] | protein stability index [3] | protein stability index [4]
24 | ALEQGGLRAATMSAVEAATCRAKE [PYCR3] | 4.68 ± 0.3 | 4.96 ± 0.14 | – | –
25 | ALKRFVNLVARHPLFSEDVVLKLF [SNX8] | 2.38 ± 0.88 | 2.46 ± 0.1 | – | –
26 | ALRNLPPLRAAHRRFNFDTDRPLL [SMG5] | 2.72 ± 0.21 | 2.85 ± 0.45 | – | –
27 | ALSLLELLGFNLTFVFLASLLVLI [CLCN6] | 3.23 ± 0.93 | 2.69 ± 0.97 | – | –
28 | ALVQEKIQKRNQRQSGDRRQLPPP [WAS] | 4.31 ± 0.24 | 4.59 ± 0.086 | – | –
29 | ANSAFAVDLFKQLCEKEPLGNVLF [SERPINB5] | 2.08 ± 0.29 | 2.47 ± 0.3 | – | –
30 | APAPAPEEWLDILGNGLLRKKTLV [FKBP8] | 3.19 ± 0.32 | 3.24 ± 0.27 | – | –
31 | APATGSGTPGPFTKEGGMLAYYEV [CHIT1] | 2.55 ± 0.25 | 2.63 ± 0.16 | – | –
32 | APDGSYFAWSQGHRTVKLVPWSQC [WSB1] | 2.57 ± 0.47 | 2.8 ± 0.42 | – | –
33 | APFPNVSTSLLTSAGNRTHKARTR [ADAMTSL2] | 4.68 ± 0.25 | 4.64 ± 0.29 | – | –
34 | APLLPHITATSLLGTRESDTEVIT [BCL2L13] | 4.58 ± 0.26 | 4.47 ± 0.2 | – | –
35 | APLTISRVHAGSKAALAALCPGDL [PDLIM4] | 3.62 ± 0.37 | 3.65 ± 0.28 | – | –
36 | APQNSFSAKLAPHYFHSISYKIEE [KCNK9] | 3.21 ± 0.12 | 3.34 ± 0.16 | – | –
37 | APWNYHYHCPGSPDHQVPYGHDYP [TRAF3IP2] | 2.6 ± 0.46 | 3.23 ± 0.3 | – | –
38 | AQPQGAPCCSSSPEEPLNGESYES [FEM1A] | 5.41 ± 0.19 | 5.53 ± 0.2 | – | –
39 | ARGDAVCTACGSVLEDNIIVSEVQ [BRF1] | 4.38 ± 0.19 | 4.34 ± 0.077 | – | –
40 | ARGPGPEGGGGGSYFSGQGSDTGA [JUNB] | 5.11 ± 0.27 | 4.91 ± 0.18 | – | –
41 | ARIQQSRRQCHAEEDQSQVPEAG [SMIM2] | – | – | 3.25 ± 0.4 | 3.29 ± 0.31
42 | ARLAADDFRVKYETELAMRQSVEN [KRT18] | 4.39 ± 0.19 | 4.44 ± 0.21 | – | –
43 | ARVTGELTMTFPAGIVRVFSGTPP [FCHO1] | 2.51 ± 0.16 | 2.43 ± 0.23 | – | –
44 | ASALRTRMTGGRPPLPPPDDPATL [DYRK1B] | 4.65 ± 0.13 | 4.87 ± 0.23 | – | –
45 | ASLHTLLGDPCPMLESPGAPCRSA [HDAC6] | 3.62 ± 0.23 | 3.83 ± 0.27 | – | –
46 | ASSGDLTCGVCALELGSTEVLLDH [PLAGL1] | 2.68 ± 0.4 | 2.82 ± 0.49 | – | –

Row | Sequence | protein stability index [1] | protein stability index [2] | protein stability index [3] | protein stability index [4]
47 | ASSNVFSNFEQTQIQEFKEAFTLM [MYL5] | 3.49 ± 0.18 | 3.42 ± 0.27 | – | –
48 | ASTSTPSSTLVRPIRSRRALPPLR [FAM189A2] | 4.16 ± 0.17 | 4.21 ± 0.21 | – | –
49 | ATIFALSTMTSSVQIYNLSQNIQE [ATL3] | 3.03 ± 0.76 | 3.27 ± 0.71 | – | –
50 | ATKTEPKKLEKYLQKLSALLMTAD [ELOA2] | 2.54 ± 0.59 | 2.31 ± 0.54 | – | –
51 | ATLCLEFLLQNDANPSIRDKEGYN [ANKRD44] | 2.61 ± 0.26 | 2.73 ± 0.074 | – | –
52 | ATTSASDSLKPEQLDIEEEGRPGA [TFE3] | 5.5 ± 0.23 | 5.35 ± 0.12 | – | –
53 | AVARSPKRPAWGSRRFEAVGWWAL [POMT2] | 2.88 ± 0.97 | 2.49 ± 0.51 | – | –
54 | AVLRRIQLQPTSIEKEVFPIMAKE [GMPPB] | 2.52 ± 0.33 | 2.57 ± 0.36 | – | –
55 | AVQAQAGWLQHDFGHLSVFSTSKW [FADS1] | 2.23 ± 0.18 | 2.29 ± 0.33 | – | –
56 | AVQHFYNIKLEGKVPMHKLFLEML [ESRRG] | 2.06 ± 0.42 | 2.23 ± 0.22 | – | –
57 | AVQRFCLIGSLSKHESEYNTTRV [NETO1] | – | – | 2.85 ± 1.1 | 2.48 ± 0.6
58 | AWEPRSESQASRKEEGLPEEEPSH [ZNF8] | 5.38 ± 0.59 | 5.59 ± 0.1 | – | –
59 | AYMGHLDVVALLINHGAEVTCKDK [ANKRD44] | 2.23 ± 0.39 | 2.44 ± 0.19 | – | –
60 | CAGPLEDAVTIPCGHTFCRLCLPA [TRIM15] | 2.69 ± 0.21 | 2.67 ± 0.37 | – | –
61 | CAKMEKDGYGMTPLLSASVTGHTN [FEM1C] | 3.58 ± 0.26 | 3.55 ± 0.11 | – | –
62 | CAQMLPPNLSPHAPWNYHYHCPGS [TRAF3IP2] | 2.56 ± 0.49 | 2.28 ± 0.29 | – | –
63 | CAVMNVVFITILIIALIALSVGQY [CD69] | 3.04 ± 0.34 | 2.47 ± 0.48 | – | –
64 | CDLADRELVVIIGWAKHIPGFSTL [ESRRG] | 2.92 ± 0.76 | 3.05 ± 0.56 | – | –
65 | CDQYSCALTGPVVDIVTGHARLSD [DHCR7] | 3.57 ± 0.25 | 3.71 ± 0.17 | – | –
66 | CFNRSREYQLNDSAAYYLNDLDRI [GNAI1] | 2.51 ± 0.25 | 2.46 ± 0.23 | – | –
67 | CFPSTQKPTEPSVPVQPLLPESLA [FBF1] | 4.14 ± 0.23 | 4.16 ± 0.15 | – | –
68 | CGACLTQLFFFHLFVGVDCFLLTA [OR3A1] | 3.07 ± 0.2 | 3.02 ± 0.33 | – | –
69 | CGTKYPVEWAKFCCECGIRRMIL [ZC2HC1A] | – | – | 3.11 ± 0.39 | 3.53 ± 0.055

Row | Sequence | protein stability index [1] | protein stability index [2] | protein stability index [3] | protein stability index [4]
70 | CHEEVYAGSHQYPGRGVYLLKFDN [ACBD3] | 2 ± 0.64 | 2.16 ± 0.8 | – | –
71 | CHHGLVADSLQASMEKDATLNVDR [DLC1] | 4.35 ± 0.12 | 4.47 ± 0.25 | – | –
72 | CKGRDHGVLDALHVLEGLFRTDPE [ZSWIM9] | 2.8 ± 0.05 | 2.81 ± 0.26 | – | –
73 | CLMIGRDLVRLLQNVARIPEFELL [INTS3] | 2.49 ± 0.17 | 2.24 ± 0.25 | – | –
74 | CLTAGPEVAAQLPAVRQLLPCARV [ZSWIM9] | 2.94 ± 0.21 | 2.97 ± 0.41 | – | –
75 | CPAELRPQVPQPPSPAAVPRPPSN [TRAF3IP2] | 5.18 ± 0.13 | 5.01 ± 0.28 | – | –
76 | CRTYIIHYYLMDDTVEIREVHERN [EFHC1] | 2.55 ± 0.38 | 2.39 ± 0.29 | – | –
77 | CTEKFKTSRDRKDHMVRMHLYPAD [ZNF511] | 3.49 ± 0.38 | 3.48 ± 0.25 | – | –
78 | CVARPGTPSLLRFALASLLQSAPD [ZSWIM9] | 2.19 ± 0.18 | 2.24 ± 0.31 | – | –
79 | CYVGATVLRGRLYAIAGYDGNSLL [KLHL12] | 3.2 ± 0.34 | 2.57 ± 0.68 | – | –
80 | DAAEEEKYDMEVRVQKTSKELEDM [TNNI2] | 5.45 ± 0.24 | 5.46 ± 0.17 | – | –
81 | DAAHPTNVQRLAEPSQMLKHAVVN [CTNNB1] | 4.62 ± 0.19 | 4.62 ± 0.15 | – | –
82 | DAHFCAVCSDYASGYHYGVWSCEG [ESR2] | 2.2 ± 0.45 | 2.49 ± 0.42 | – | –
83 | DATLSLKQTILDKEEKQRRNVAKN [TTC32] | 4.99 ± 0.28 | 4.91 ± 0.19 | – | –
84 | DCLKACQEQIEAVLLNSLQQYRQD [CCND2] | 2.32 ± 0.35 | 2.33 ± 0.28 | – | –
85 | DCLQGIRKGLQHGFFDFETFDVDE [CDC14A] | 3.33 ± 0.3 | 3.62 ± 0.61 | – | –
86 | DDLMGILCKSVLEIERAIKQTQCP [FEM1C] | 2.07 ± 0.22 | 2.46 ± 0.29 | – | –
87 | DDSDTQQVVVLVRDNGDPSLSSTA [PCDHGC5] | 4.76 ± 0.16 | 4.83 ± 0.22 | – | –
88 | DEASAATPPSSRRVWSPPRVHKVE [ZBTB22] | 5 ± 0.073 | 4.99 ± 0.15 | – | –
89 | DEISDHAKVLTLSDDLERTIEERV [EIF5] | 5.16 ± 0.28 | 5.44 ± 0.11 | – | –
